According to paper PMC9308218, “FBXL17/spastin axis as a novel therapeutic target of hereditary spastic paraplegia” (Cell & Bioscience, 2022):

Target: T1, USP20 (Ubiquitin Specific Peptidase 20) on the HuProt protein microarray (human, UniProt Q9Y2K6 1-914)
T1 construct: ubiquitin specific peptidase 20, human, spot on the HuProt array of full-length recombinant human proteins; source: bought: HuProt protein microarray (CDI Labs), recombinant
Assay: peptide or protein array; HuProt human protein microarray (over 20,000 full-length recombinant human proteins); 3 μg biotinylated His-SPAST on the array for 8 h at 4 °C; detected with streptavidin-Alexa-Fluor 635
Conditions: both partners purified

T1 sequence (Q9Y2K6 whole entry): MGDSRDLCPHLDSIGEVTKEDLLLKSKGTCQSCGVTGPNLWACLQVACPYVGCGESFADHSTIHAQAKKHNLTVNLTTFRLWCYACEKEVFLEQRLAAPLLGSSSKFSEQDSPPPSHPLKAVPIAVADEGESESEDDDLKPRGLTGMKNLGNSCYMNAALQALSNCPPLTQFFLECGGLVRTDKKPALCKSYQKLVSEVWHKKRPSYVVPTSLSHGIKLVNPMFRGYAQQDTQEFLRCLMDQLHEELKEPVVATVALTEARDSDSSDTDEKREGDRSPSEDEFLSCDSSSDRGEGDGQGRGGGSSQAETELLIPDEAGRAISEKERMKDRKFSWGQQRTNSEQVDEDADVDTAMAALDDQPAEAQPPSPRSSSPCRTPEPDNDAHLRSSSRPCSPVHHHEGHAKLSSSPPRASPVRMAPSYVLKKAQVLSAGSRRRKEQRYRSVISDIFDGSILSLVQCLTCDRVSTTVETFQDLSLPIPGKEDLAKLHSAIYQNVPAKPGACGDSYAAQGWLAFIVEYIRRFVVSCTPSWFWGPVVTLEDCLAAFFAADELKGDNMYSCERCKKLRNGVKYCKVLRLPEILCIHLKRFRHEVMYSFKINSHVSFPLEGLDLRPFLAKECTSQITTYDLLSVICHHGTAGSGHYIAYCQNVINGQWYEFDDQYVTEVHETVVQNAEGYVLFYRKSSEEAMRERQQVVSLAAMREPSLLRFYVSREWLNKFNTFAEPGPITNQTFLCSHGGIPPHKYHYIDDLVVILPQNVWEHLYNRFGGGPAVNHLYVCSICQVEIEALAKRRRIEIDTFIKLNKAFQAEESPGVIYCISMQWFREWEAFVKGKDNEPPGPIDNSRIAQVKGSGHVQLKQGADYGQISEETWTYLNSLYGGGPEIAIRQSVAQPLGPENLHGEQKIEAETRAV

binding result: binds
B1: biotinylated His-SPAST-M1 (natural protein, human, UniProt Q9UBP0 1-616, looked up)
chain: MNSPGGRGKKKGSGGASNPVPPRPPPPCLAPAPPAAGPAPPPESPHKRNLYYFSYPLFVGFALLRLVAFHLGLLFVWLCQRFSRALMAAKRSSGAAPAPASASAPAPVPGGEAERVRVFHKQAFEYISIALRIDEDEKAGQKEQAVEWYKKGIEELEKGIAVIVTGQGEQCERARRLQAKMMTNLVMAKDRLQLLEKMQPVLPFSKSQTDVYNDSTNLACRNGHLQSESGAVPKRKDPLTHTSNSLPRSKTVMKTGSAGLSGHHRAPSYSGLSMVSGVKQGSGPAPTTHKGTPKTNRTNKPSTPTTATRKKKDLKNFRNVDSNLANLIMNEIVDNGTAVKFDDIAGQDLAKQALQEIVILPSLRPELFTGLRAPARGLLLFGPPGNGKTMLAKAVAAESNATFFNISAASLTSKYVGEGEKLVRALFAVARELQPSIIFIDEVDSLLCERREGEHDASRRLKTEFLIEFDGVQSAGDDRVLVMGATNRPQELDEAVLRRFIKRVYVSLPNEETRLLLLKNLLCKQGSPLTQKELAQLARMTDGYSGSDLTALAKDAALGPIRELKPEQVKNMSASEMRNIRLSDFTESLKKIKRSVSPQTLEAYIRWNKDFGDTTV
modifications: biotin (biotinylated, site not stated)
notes: The methods call it His-SPAST; the results call it His-SPAST-M1; also called His-tagged SPAST protein; source: E. coli BL21 (pET28a-His-SPAST), purified (Ni-NTA)
